Laboratory results reported in patent publication US20150132269.

Experiments:
Test in all cases: cell_activity
ZFN 46786 (synthetic) = details: pair with 46880
ZFN 46801 (synthetic) = details: pair with 46880
ZFN 46816 (synthetic) = details: pair with 47923
ZFN 46934 (synthetic) = details: pair with 47923
ZFN 45843 (synthetic) = details: pair with 45844, CD34+ cells
ZFN 46189 (synthetic) = details: pair with 46188, K562
ZFN 46228 (synthetic) = details: pair with 46226, K562
ZFN 46880 (synthetic) = details: pair with 46801
ZFN 47923 (synthetic) = details: pair with 46801
ZFN 46216 (synthetic) = details: pair with 46217, K562
ZFN 46247 (synthetic) = details: pair with 46246, K562
ZFN 46229 (synthetic) = details: pair with 46230, K562
ZFN 46188 (synthetic) = details: pair with 46189, K562
ZFN 46240 (synthetic) = details: pair with 46241, K562
ZFN 46164 (synthetic) = details: pair with 46163, K562
ZFN 46181 (synthetic) = details: pair with 46180, K562
ZFN 46209 (synthetic) = details: pair with 46208, K562
ZFN 46208 (synthetic) = details: pair with 46209, K562
ZFN 46226 (synthetic) = details: pair with 46228, K562
ZFN 46217 (synthetic) = details: pair with 46216, K562
ZFN 46246 (synthetic) = details: pair with 46247, K562
ZFN 46163 (synthetic) = details: pair with 46164, K562
ZFN 47021 (synthetic) = details: pair with 45843
ZFN 45844 (synthetic) = details: pair with 45843, CD34+ cells
ZFN 46180 (synthetic) = details: pair with 46181, K562
ZFN 46241 (synthetic) = details: pair with 46240, K562
ZFN 46230 (synthetic) = details: pair with 46229, K562
ZFN 46158 (synthetic) = details: pair with 46156, K562, Cel-I
ZFN 46156 (synthetic) = details: pair with 46158, K562

**Q.** “AAAGCAACTGTTAGCTTGCACTAGACTA (double strand) [45848/46801 target]” was tested. Which activity (ZFN 46786 (synthetic)) did it give?
**A.** Its activity is 71 % NHEJ (D0).

**Q.** What about the activity (ZFN 46801 (synthetic)) of the same sequence?
**A.** The activity was 87 % NHEJ (D0).

**Q.** What about the activity (ZFN 46816 (synthetic)) of the same sequence?
**A.** The activity was 29.9 % indels.

**Q.** What about the activity (ZFN 46934 (synthetic)) of the same sequence?
**A.** Its activity is 80 % NHEJ (D0).

**Q.** How did the activity (ZFN 45843 (synthetic)) turn out when “AAGCAACTGTTAGCTTGCACTAGACTAG (double strand) [45843 target]” was run?
**A.** Its activity is 78 % NHEJ (D0).

**Q.** For “ACACCCTGTGATCTTGTGGGACCCCTCT (double strand) [46189 target]”, which activity (ZFN 46189 (synthetic)) is on record?
**A.** The activity was 12.8 % NHEJ.

**Q.** With “ATAGGGGTCGCGGTAGGGAGTTGTCGGC (double strand) [46228 target]” as the sequence, how does the activity (ZFN 46228 (synthetic)) read?
**A.** The activity was 37.8 % NHEJ.

**Q.** Which activity (ZFN 46880 (synthetic)) does the source give for “CACAGGCTCCAGGAAGGGTTTGGCCTCT (double strand) [45849/46880 target]” here?
**A.** Its activity is 87 % NHEJ (D0).

**Q.** What about the activity (ZFN 47923 (synthetic)) of the same sequence?
**A.** The activity was 82 % NHEJ (D0).

**Q.** Which activity (ZFN 46216 (synthetic)) does the source give for “CAGGCTGGGCTGGACAGAGGGGTCCCAC (double strand) [46216 target]” here?
**A.** The activity was 16.6 % NHEJ.

**Q.** Which activity (ZFN 46247 (synthetic)) does the source give for “CCGTCTACATAGAGGCCCTTCCTGCTTG (double strand) [46247 target]” here?
**A.** The activity was 17.3 % NHEJ.

**Q.** Which activity (ZFN 46229 (synthetic)) does the source give for “CCTATCAGTGCCGACCAAGCACACAAGA (double strand) [46229 target]” here?
**A.** The activity was 37.2 % NHEJ.

**Q.** How did the activity (ZFN 46188 (synthetic)) turn out when “CCTGAGAAGGTGGGGAGCTCACAGCCTC (double strand) [46188 target]” was run?
**A.** Its activity is 12.8 % NHEJ.

**Q.** “CTCACAGGACATGCAGCAGTGTGTGCCG (double strand) [46240 target]” was tested. Which activity (ZFN 46240 (synthetic)) did it give?
**A.** The activity was 25 % NHEJ.

**Q.** “GAAGGGAAGTGGGTATGGGGCAGCCCAT (double strand) [46164 target]” was tested. Which activity (ZFN 46164 (synthetic)) did it give?
**A.** Its activity is 21.9 % NHEJ.

**Q.** Which activity (ZFN 46181 (synthetic)) does the source give for “GCAATGCTTGGAGGCTGTGAGCTCCCCA (double strand) [46181 target]” here?
**A.** Its activity is 15.2 % NHEJ.

**Q.** Which activity (ZFN 46209 (synthetic)) does the source give for “GCCTGGGTGTGCATCTTGTGTGCTTGGT (double strand) [46209 target]” here?
**A.** The activity was 28 % NHEJ.

**Q.** For “GGGCTGGACAGAGGGGTCCCACAAGATC (double strand) [46208 target]”, which activity (ZFN 46208 (synthetic)) is on record?
**A.** Its activity is 28 % NHEJ.

**Q.** How did the activity (ZFN 46226 (synthetic)) turn out when “GTGCCGACCAAGCACACAAGATGCACAC (double strand) [46226 target]” was run?
**A.** The activity was 37.8 % NHEJ.

**Q.** “GTGTGCATCTTGTGTGCTTGGTCGGCAC (double strand) [46217 target]” was tested. Which activity (ZFN 46217 (synthetic)) did it give?
**A.** Its activity is 16.6 % NHEJ.

**Q.** With “GTGTGGCTCCTTAAGGTGACCCAGCAGC (double strand) [46246 target]” as the sequence, how does the activity (ZFN 46246 (synthetic)) read?
**A.** The activity was 17.3 % NHEJ.

**Q.** For “TAGAATTGGCCTGGGACATTCATTATTT (double strand) [46163 target]”, which activity (ZFN 46163 (synthetic)) is on record?
**A.** Its activity is 21.9 % NHEJ.

**Q.** Which results are given for “TCACAGGCTCCAGGAAGGGTTTGGCCTC (double strand) [45844 target]”?
**A.** activity (ZFN 47021 (synthetic)): 82 % NHEJ (D0); activity (ZFN 45844 (synthetic)): 78 % NHEJ (D0)

**Q.** How did the activity (ZFN 46180 (synthetic)) turn out when “TCATCCTGGTACCAGGAAGGCAATGGGC (double strand) [46180 target]” was run?
**A.** The activity was 15.2 % NHEJ.

**Q.** How did the activity (ZFN 46241 (synthetic)) turn out when “TCCCCAAGGCTGTGCCCAGCCTTCAGTG (double strand) [46241 target]” was run?
**A.** The activity was 25 % NHEJ.

**Q.** How did the activity (ZFN 46230 (synthetic)) turn out when “TCGCGGTAGGGAGTTGTCGGCACACACT (double strand) [46230 target]” was run?
**A.** Its activity is 37.2 % NHEJ.

**Q.** For “TCTAGGAAGGGAAGTGGGTATGGGGCAG (double strand) [46158 target]”, which activity (ZFN 46158 (synthetic)) is on record?
**A.** The activity was 30.4 % NHEJ.

**Q.** With “TGGCCTGGGACATTCATTATTTAGCCAC (double strand) [46156 target]” as the sequence, how does the activity (ZFN 46156 (synthetic)) read?
**A.** The activity was 30.4 % NHEJ.
